Consider one protein from publication PMC3326351 (International Journal of Oncology, 2011).

The data set concerns the molecule itself. In words: non-reducing SDS-PAGE and immunoblot.

B1: His-tagged MUC1-C cytoplasmic domain (domain or fragment, human, UniProt P15941 1182-1255, looked up)
chain: AVCQCRRKNYGQLDIFPARDTYHPMSEYPTYHTHGRYVPPSSTDRSPYEKVSAGNGGSSLSYTNPAVAATSANL
Take B1: the binding result is “binds”.
